Laboratory results reported in patent publication US20110086767A1, “MUTANTS OF GLYCOSIDE HYDROLASES AND USES THEREOF FOR SYNTHESIZING COMPLEX OLIGOSACCHARIDES AND DISACCHARIDE INTERMEDIATES” (Institut Pasteur, priority 2008, published 2011).

Experiment: HPLC screening of double-mutant libraries for variants able to glucosylate D-GlcpNAc
Assay type: biochemical
Conditions: α-D-Glcp-(1→4)-α-D-GlcpNAc (ED) from sucrose and D-GlcpNAc, microplate format
Method: The protocol was established to enable the rapid identification of clones for which D-GlcpNAc glucosylation was improved. To obtain higher amounts of enzymes and facilitate detection of glucosylated compounds upon HPLC screening, mutants were produced in 96-DeepWell Format plates. Storage microplates containing monomutants were thawed and replicated to inoculate a starter culture in 96-well microplates containing, in each well, 150 μL LB medium supplemented with ampicillin (100 μg/mL). After growth for 24 h at 30° C. under agitation (200 rpm), plates were duplicated into 96-Deep Well plates containing, in each well, 1.1 mL LB medium supplemented with ampicillin (100 μg/mL) and IPTG (1 mM) to induce GST-AS expression. Cultures were then grown for 24 h at 30° C. under agitation (200 rpm). Plates were centrifuged (20 min, 3000 g, 4° C.) and the supernatant was removed. The cell pellet was resuspended in 200 μL of lysozyme (0.5 mg/mL), followed by freezing at −80° C. for 8 to 12 h. After thawing at room temperature, 100 μL of sucrose and 100 μL of acceptor (each at a final concentration of 73 mM) were added to each well. Enzymatic reaction was incubated at 30° C. during 24 h under agitation. The DeepWell plates were then centrifuged (20 min, 3000 g, 4° C.) and 300 μL of the supernatant was transferred to a filter micro-plate (PVDF 0.2 μm) to be clarified. Supernatant filtration was carried out by centrifugation of the filter micro-plate (5 min, 2000 g, 4° C.) into a novel microplate for screening.
The method for the expression of the mutant libraries is described in Example 1-1.
Acceptor reaction products were analyzed by HPLC analysis using a C18-AQ column (Bischoff C18, 125×4 mm, 3 μm) kept at room temperature and eluted with 0.6 mL/min of ultra-pure water to detect α-D-Glcp-(1→4)-α-D-GlcpNAc formation (analysis time: 7 min). To evaluate the efficiency of the glucosylation reaction, it was carried out complementary HPLC analyses with a Biorad HPX-87K Carbohydrate Analysis column (maintained at 65° C., and eluted at a flow rate of 0.6 mL/min with ultra-pure water). By this way, it was possible to measure sucrose consumption by RI detection and concomitant α-D-Glcp-(1-4)-α-D-GlcpNAc formation by UV220 nm and determine mutant ability to synthesize the desired disaccharide α-D-Glcp-(1→4)-α-D-GlcpNAc (i.e., % Glucosyl units transferred onto acceptor derivatives=[Glucosyl units transferred onto acceptor derivatives]/[Glucosyl units transferred from initial sucrose]×100)
All clones producing sucrose-utilizing variants were then picked and cultured in 96-well microplates. Following cell lysis, the acceptor reaction in the presence of D-GlcpNAc was then carried out in microplate format. HLPC analysis time for each clone was reduced to 7 min for detection of α-D-Glcp-(1→4)-α-D-GlcpNAc. When disaccharide formation was detected, complementary analyses were performed to determine sucrose consumption and disaccharide formation with more accuracy in order to calculate the glucosylation yield.

| Molecule | Glusosylation Yield to synthesize ED [%] | Glusosylation Yield to synthesize ED (listed as DM4_P1_G7) [%] | Glusosylation Yield to synthesize ED (listed as DM4_P2_B10) [%] |
| --- | --- | --- | --- |
| F290V: single mutant F290V of N. polysaccharea amylosucrase (protein) SPNSQYLKTRILDIYTPEQRAGIEKSEDWRQFSRRMDTHFPKLMNELDSVYGNNEALLPMLEMLLAQAWQSYSQRNSSLKDIDIARENNPDWILSNKQVGGVCYVDLFAGDLKGLKDKIPYFQELGLTYLHLMPLFKCPEGKSDGGYAVSSYRDVNPALGTIGDLREVIAALHEAGISAVVDFIFNHTSNEHEWAQRCAAGDPLFDNFYYIFPDRRMPDQYDRTLREIFPDQHPGGFSQLEDGRWVWTTFNSFQWDLNYSNPWVFRAMAGEMLFLANLGVDILRMDAVAVIWKQMGTSCENLPQAHALIRAFNAVMRIAAPAVFFKSEAIVHPDQVVQYIGQDECQIGYNPLQMALLWNTLATREVNLLHQALTYRHNLPEHTAWVNYVRSHDDIGWTFADEDAAYLGISGYDHRQFLNRFFVNRFDGSFARGVPFQYNPSTGDCRVSGTAAALVGLAQDDPHAVDRIKLLYSIALSTGGLPLIYLGDEVGTLNDDDWSQDSNKSDDSRWAHRPRYNEALYAQRNDPSTAAGQIYQDLRHMIAVRQSNPRFDGGRLVTFNTNNKHIIGYIRNNALLAFGNFSEYPQTVTAHTLQAMPFKAHDLIGGKTVSLNQDLTLQPYQVMWLEIA | 100 |  |  |
| F290R: single mutant F290R of N. polysaccharea amylosucrase (protein) SPNSQYLKTRILDIYTPEQRAGIEKSEDWRQFSRRMDTHFPKLMNELDSVYGNNEALLPMLEMLLAQAWQSYSQRNSSLKDIDIARENNPDWILSNKQVGGVCYVDLFAGDLKGLKDKIPYFQELGLTYLHLMPLFKCPEGKSDGGYAVSSYRDVNPALGTIGDLREVIAALHEAGISAVVDFIFNHTSNEHEWAQRCAAGDPLFDNFYYIFPDRRMPDQYDRTLREIFPDQHPGGFSQLEDGRWVWTTFNSFQWDLNYSNPWVFRAMAGEMLFLANLGVDILRMDAVARIWKQMGTSCENLPQAHALIRAFNAVMRIAAPAVFFKSEAIVHPDQVVQYIGQDECQIGYNPLQMALLWNTLATREVNLLHQALTYRHNLPEHTAWVNYVRSHDDIGWTFADEDAAYLGISGYDHRQFLNRFFVNRFDGSFARGVPFQYNPSTGDCRVSGTAAALVGLAQDDPHAVDRIKLLYSIALSTGGLPLIYLGDEVGTLNDDDWSQDSNKSDDSRWAHRPRYNEALYAQRNDPSTAAGQIYQDLRHMIAVRQSNPRFDGGRLVTFNTNNKHIIGYIRNNALLAFGNFSEYPQTVTAHTLQAMPFKAHDLIGGKTVSLNQDLTLQPYQVMWLEIA | 100 |  |  |
| I228V-F290V: double mutant I228V, F290V of N. polysaccharea amylosucrase (protein) SPNSQYLKTRILDIYTPEQRAGIEKSEDWRQFSRRMDTHFPKLMNELDSVYGNNEALLPMLEMLLAQAWQSYSQRNSSLKDIDIARENNPDWILSNKQVGGVCYVDLFAGDLKGLKDKIPYFQELGLTYLHLMPLFKCPEGKSDGGYAVSSYRDVNPALGTIGDLREVIAALHEAGISAVVDFIFNHTSNEHEWAQRCAAGDPLFDNFYYIFPDRRMPDQYDRTLREVFPDQHPGGFSQLEDGRWVWTTFNSFQWDLNYSNPWVFRAMAGEMLFLANLGVDILRMDAVAVIWKQMGTSCENLPQAHALIRAFNAVMRIAAPAVFFKSEAIVHPDQVVQYIGQDECQIGYNPLQMALLWNTLATREVNLLHQALTYRHNLPEHTAWVNYVRSHDDIGWTFADEDAAYLGISGYDHRQFLNRFFVNRFDGSFARGVPFQYNPSTGDCRVSGTAAALVGLAQDDPHAVDRIKLLYSIALSTGGLPLIYLGDEVGTLNDDDWSQDSNKSDDSRWAHRPRYNEALYAQRNDPSTAAGQIYQDLRHMIAVRQSNPRFDGGRLVTFNTNNKHIIGYIRNNALLAFGNFSEYPQTVTAHTLQAMPFKAHDLIGGKTVSLNQDLTLQPYQVMWLEIA |  | 90 | 47 |
| I228V-F290K: double mutant I228V, F290K of N. polysaccharea amylosucrase (protein) SPNSQYLKTRILDIYTPEQRAGIEKSEDWRQFSRRMDTHFPKLMNELDSVYGNNEALLPMLEMLLAQAWQSYSQRNSSLKDIDIARENNPDWILSNKQVGGVCYVDLFAGDLKGLKDKIPYFQELGLTYLHLMPLFKCPEGKSDGGYAVSSYRDVNPALGTIGDLREVIAALHEAGISAVVDFIFNHTSNEHEWAQRCAAGDPLFDNFYYIFPDRRMPDQYDRTLREVFPDQHPGGFSQLEDGRWVWTTFNSFQWDLNYSNPWVFRAMAGEMLFLANLGVDILRMDAVAKIWKQMGTSCENLPQAHALIRAFNAVMRIAAPAVFFKSEAIVHPDQVVQYIGQDECQIGYNPLQMALLWNTLATREVNLLHQALTYRHNLPEHTAWVNYVRSHDDIGWTFADEDAAYLGISGYDHRQFLNRFFVNRFDGSFARGVPFQYNPSTGDCRVSGTAAALVGLAQDDPHAVDRIKLLYSIALSTGGLPLIYLGDEVGTLNDDDWSQDSNKSDDSRWAHRPRYNEALYAQRNDPSTAAGQIYQDLRHMIAVRQSNPRFDGGRLVTFNTNNKHIIGYIRNNALLAFGNFSEYPQTVTAHTLQAMPFKAHDLIGGKTVSLNQDLTLQPYQVMWLEIA | 89 |  |  |
| I228A-F290H: double mutant I228A, F290H of N. polysaccharea amylosucrase (protein) SPNSQYLKTRILDIYTPEQRAGIEKSEDWRQFSRRMDTHFPKLMNELDSVYGNNEALLPMLEMLLAQAWQSYSQRNSSLKDIDIARENNPDWILSNKQVGGVCYVDLFAGDLKGLKDKIPYFQELGLTYLHLMPLFKCPEGKSDGGYAVSSYRDVNPALGTIGDLREVIAALHEAGISAVVDFIFNHTSNEHEWAQRCAAGDPLFDNFYYIFPDRRMPDQYDRTLREAFPDQHPGGFSQLEDGRWVWTTFNSFQWDLNYSNPWVFRAMAGEMLFLANLGVDILRMDAVAHIWKQMGTSCENLPQAHALIRAFNAVMRIAAPAVFFKSEAIVHPDQVVQYIGQDECQIGYNPLQMALLWNTLATREVNLLHQALTYRHNLPEHTAWVNYVRSHDDIGWTFADEDAAYLGISGYDHRQFLNRFFVNRFDGSFARGVPFQYNPSTGDCRVSGTAAALVGLAQDDPHAVDRIKLLYSIALSTGGLPLIYLGDEVGTLNDDDWSQDSNKSDDSRWAHRPRYNEALYAQRNDPSTAAGQIYQDLRHMIAVRQSNPRFDGGRLVTFNTNNKHIIGYIRNNALLAFGNFSEYPQTVTAHTLQAMPFKAHDLIGGKTVSLNQDLTLQPYQVMWLEIA | 88 |  |  |
| F229V: single mutant F229V of N. polysaccharea amylosucrase (protein) SPNSQYLKTRILDIYTPEQRAGIEKSEDWRQFSRRMDTHFPKLMNELDSVYGNNEALLPMLEMLLAQAWQSYSQRNSSLKDIDIARENNPDWILSNKQVGGVCYVDLFAGDLKGLKDKIPYFQELGLTYLHLMPLFKCPEGKSDGGYAVSSYRDVNPALGTIGDLREVIAALHEAGISAVVDFIFNHTSNEHEWAQRCAAGDPLFDNFYYIFPDRRMPDQYDRTLREIVPDQHPGGFSQLEDGRWVWTTFNSFQWDLNYSNPWVFRAMAGEMLFLANLGVDILRMDAVAFIWKQMGTSCENLPQAHALIRAFNAVMRIAAPAVFFKSEAIVHPDQVVQYIGQDECQIGYNPLQMALLWNTLATREVNLLHQALTYRHNLPEHTAWVNYVRSHDDIGWTFADEDAAYLGISGYDHRQFLNRFFVNRFDGSFARGVPFQYNPSTGDCRVSGTAAALVGLAQDDPHAVDRIKLLYSIALSTGGLPLIYLGDEVGTLNDDDWSQDSNKSDDSRWAHRPRYNEALYAQRNDPSTAAGQIYQDLRHMIAVRQSNPRFDGGRLVTFNTNNKHIIGYIRNNALLAFGNFSEYPQTVTAHTLQAMPFKAHDLIGGKTVSLNQDLTLQPYQVMWLEIA | 88 |  |  |
